{
  "source": "patent US20010041346A1",
  "about": "“METHOD FOR ASSAYING COMPOUNDS AFFECTING SMOOTH MUSCLE CONTRACTILE STATE” (priority 1999, published 2001)",
  "molecules": {"B1": {"name": "MBS1-690: 690 amino acid N-terminal half of MBS (protein, UniProt O14974 1-690, looked up, fragment)", "chain": "MKMADAKQKRNEQLKRWIGSETDLEPPVVKRQKTKVKFDDGAVFLAACSSGDTDEVLKLLHRGADINYANVDGLTALHQACIDDNVDMVKFLVENGANINQPDNEGWIPLHAAASCGYLDIAEFLIGQGAHVGAVNSEGDTPLDIAEEEAMEELLQNEVNRQGVDIEAARKEEERIMLRDARQWLNSGHINDVRHAKSGGTALHVAAAKGYTEVLKLLIQAGYDVNIKDYDGWTPLHAAAHWGKEEACRILVDNLCDMEMVNKVGQTAFDVADEDILGYLEELQKKQNLLHSEKRDKKSPLIESTANMDNNQSQKTFKNKETLIIEPEKNASRIESLEQEKVDEEEEGKKDESSCSSEEDEEDDSESEAETDKTKPLASVTNANTSSTQAAPVAVTTPTVSSGQATPTSPIKKFPTTATKISPKEEERKDESPATWRLGLRKTGSYGALAEITASKEGQKEKDTAGVTRSASSPRLSSSLDNKEKEKDSKGTRLAYVAPTIPRRLASTSDIEEKENRDSSSLRTSSSYTRRKWEDDLKKNSSVNEGSTYHKSCSFGRRQDDLISSSVPSTTSTPTVTSAAGLQKSLLSSTSTTTKITTGSSSAGTQSSTSNRLWAEDSTEKEKDSVPTAVTIPVAPTVVNAAASTTTLTTTTAGTVSSTTEVRERRRSYLTPVRDEESESQRKARSRQAR"}},
  "biological_target": "T1, cGK from human saphenous vein smooth muscle cell lysates (Homo sapiens, UniProt Q13976)",
  "T1 construct": "from tissue; host or cells: frozen human saphenous vein, homogenized",
  "T1 sequence (Q13976 1-671)": "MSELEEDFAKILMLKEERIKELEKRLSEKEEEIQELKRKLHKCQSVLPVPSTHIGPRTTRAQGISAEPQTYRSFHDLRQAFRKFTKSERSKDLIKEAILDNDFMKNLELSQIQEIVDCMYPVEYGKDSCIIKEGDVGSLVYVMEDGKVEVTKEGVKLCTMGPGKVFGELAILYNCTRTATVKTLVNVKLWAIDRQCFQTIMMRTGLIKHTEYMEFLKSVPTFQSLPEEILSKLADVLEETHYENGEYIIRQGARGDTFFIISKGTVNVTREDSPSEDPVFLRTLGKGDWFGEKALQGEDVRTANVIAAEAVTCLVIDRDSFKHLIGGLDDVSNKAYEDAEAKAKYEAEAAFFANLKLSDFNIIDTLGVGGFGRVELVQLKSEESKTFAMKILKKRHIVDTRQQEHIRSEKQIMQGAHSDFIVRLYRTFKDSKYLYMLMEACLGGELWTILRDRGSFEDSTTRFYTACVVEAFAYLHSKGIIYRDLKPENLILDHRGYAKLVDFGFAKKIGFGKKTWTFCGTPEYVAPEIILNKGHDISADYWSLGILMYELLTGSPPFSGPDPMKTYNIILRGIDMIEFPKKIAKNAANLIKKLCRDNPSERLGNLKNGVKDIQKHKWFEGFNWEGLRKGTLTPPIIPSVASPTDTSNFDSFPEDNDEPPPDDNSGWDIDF",
  "experiment": "GST-fusion protein binding, immunoblot for cGK",
  "conditions": "GST pulldown, immunoblotting with anti-cGK antibody",
  "experimental": "Lysates were centrifuged for 15 minutes at 4° C. in a microfuge, and the supernatant was incubated with 100 μl of GST or GST-fusion protein beads overnight, followed by washing in RIPA buffer containing 1% NP40, and boiling for 5 minutes in SDS sample buffer. Associated proteins were resolved by SDS-PAGE and transferred to nitrocellulose, which was blocked in PBS with 0.05% Tween 20 and 5% milk. Primary antibody incubation with rabbit polyclonal anti-human cGPK-CT (Upstate Biotechnology, Lake Placid, N.Y.) was carried out at 1:2000 dilution and rabbit polyclonal anti-MBS antibody (Berkeley Antibody Company, Richmond, Calif.) at 1:1600 dilution in blocking buffer for one hour at room temperature, followed by secondary antibody incubation with anti-rabbit horseradish peroxidase-conjugated IgG (Amersham Life Science, Arlington Heights, Ill.) at 1:500 in blocking buffer. The membranes were developed with ECL (Amersham Life Science, Arlington Heights, Ill.).\nThe 586 base pair cDNA insert from AL9, the 177 base pair N-terminal cGK1α truncation mutant, cGK1α1-59, the N-terminal 274 base pairs of cGKIβ, and the N-terminal 816 base pairs of cGKII were cloned into pGEX (Pharmacia Biotech, Piscataway, N.J.). GST fusion proteins were expressed in bacterial strain BL21 (Stratagene, La Jolla, Calif.) according to standard techniques. […]",
  "data": [
    {"molecule": "B1", "values": [
      {"measurement": "binding of cGK from smooth muscle cell lysates", "result": "no interaction with cGK"}
    ]}
  ]
}
